# According to patent publication US20020143164A1, “Ras activator nucleic acid molecules, polypeptides and methods of use” (priority 1999, published 2002):
# B1: isolated CDC25 domain of GRF4: Isolated CDC25 catalytic domain of GRF4 (protein)
# chain: SLLQLSTVEVATQLSMRNFELFRNIEPTEYIDDLFKLRSKTSCANLKRFEEVINQETFWVASEILRETNQLKRMKIIKHFIKIALHCRECKNFNSMFAIISGLNLAPVARLRTTWEKLPNKYEKLFQDLQDLFDPSRNMAKYRNVLNSQNLQPPIIPLFPVIKKDLTFLHEGNDSKVDGLVNFEKLRMIAKEIRHVGRMASVNMDPALMFRTRKKKWRSLGSLSQGSTNATVLDVAQTGGHKKRVRRSSFLNAKKLYEDAQMARKVKQYLSNLELEMDEESLQTLSLQCEPATNT
# System: Ras
# Experiment: In vitro GEF assay (32P-α-GTP binding to Ras)
# Assay type: biochemical
# Procedure: Full length (GRF4) or CDC25-deleted (ΔCDC25) GRF4, or GRF2, each Flag-tagged, were immunoprecipitated from transfected Hek-293T cells using anti Flag antibodies. Equal amounts of immunoprecipitates were washed with GEF lysis buffer, equilibrated with GEF assay buffer and incubated with 32P-α-GTP (diluted in cold GTP) plus 100 ng of Ras for 30 min. Bound and unbound radiolabelled GTP were then separated by filtration, and the amount of bound GTP determined by scintillation counting, as detailed in the Method section. Fold Ras activation was compared to the activation of Ras in the absence of GRFs (which was set to 1).
# GRF4 has a RasGRF(GEF) activity/function. To show its GEF activity, we performed in-vitro GEF assays. Briefly, GST-Ras was added alone (tubes 1 and 2) or along with GST-CDC25, or immunoprecipitated full-length of GRF4 (tubes 3 and 4). All tubes contained assay mixture including cold GTP and P32 alpha GTP. The exchange reactions were stopped at the indicated times. The stopped reaction mixtures were passed through nitrocellulose filters which were then washed with stop buffer to separate bound and unbound nucleotides. Filters were dried and then quantified by scintillation counting to determine bound CPM. The labeled nucleotides trapped on the washed filters were assumed to be Ras-associated. The difference in bound CPM over 30 minute period was determined for reactions where GST-Ras was added alone (it is the difference in bound CPM between tubes 1 and 2) and where GST-Ras was added with a GEF (it is the difference in bound CPM between tubes 3 and 4).
molecule,measurement,value
B1,In vitro GEF activity on Ras,unable to demonstrate significant activation
